From publication PMC3575576

Target: E47 (mouse (endogenous in palatal shelves)) (UniProt P15806)
Chain of UniProt P15806 (P15806 whole entry): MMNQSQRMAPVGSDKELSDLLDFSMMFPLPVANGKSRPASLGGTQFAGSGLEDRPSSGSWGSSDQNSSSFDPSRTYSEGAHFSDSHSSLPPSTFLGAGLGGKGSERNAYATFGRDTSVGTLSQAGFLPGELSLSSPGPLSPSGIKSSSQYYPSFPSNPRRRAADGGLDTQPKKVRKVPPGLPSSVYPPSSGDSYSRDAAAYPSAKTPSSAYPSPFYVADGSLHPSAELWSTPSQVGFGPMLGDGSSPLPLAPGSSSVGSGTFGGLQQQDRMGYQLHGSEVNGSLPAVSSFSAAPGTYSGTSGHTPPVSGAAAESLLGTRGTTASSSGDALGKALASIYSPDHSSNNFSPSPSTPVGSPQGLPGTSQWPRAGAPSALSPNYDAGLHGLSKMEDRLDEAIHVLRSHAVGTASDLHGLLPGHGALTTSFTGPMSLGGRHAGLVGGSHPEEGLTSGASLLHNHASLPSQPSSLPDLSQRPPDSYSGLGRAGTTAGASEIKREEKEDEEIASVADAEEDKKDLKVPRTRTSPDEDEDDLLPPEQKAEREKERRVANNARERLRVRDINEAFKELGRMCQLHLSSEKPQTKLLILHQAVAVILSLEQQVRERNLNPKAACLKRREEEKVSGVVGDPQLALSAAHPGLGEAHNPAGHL

B1: Twist1 (natural protein)
chain: MMQDVSSSPVSPADDSLSNSEEEPDRQQPASGKRGARKRRSSRRSAGGSAGPGGATGGGIGGGDEPGSPAQGKRGKKSAGGGGGGGAGGGGGGGGGSSSGGGSPQSYEELQTQRVMANVRERQRTQSLNEAFAALRKIIPTLPSDKLSKIQTLKLAARYIDFLYQVLQSDELDSKMASCSYVAHERLSYAFSVWRMEGAWSMSASH
Binder B1 has a luciferase activity of the Snail1 promoter (1.7KSnLuc) in MDCK cells transfected with forced Twist1/E47 (T/E) heterodimers, compared with cells transfected with Twist1 alone of 2 fold.
